Key:
[1] = design: species or system Sprague-Dawley rats; details: rat, in vivo
Protocol: We eluted the peptides with a 50 mM NaHCO3 solution and collected the eluted fractions containing the peptides. […] After adding 15 μL of trimethylamine to the Cy7-ester and peptide solution, we gently stirred the mixed solution overnight in the dark at room temperature. We desalted the resulting solution (1.94 mL) using a PD-10 column, eluted it with PBS (pH 7.4) with 0.001% methyl cellulose, and then adjusted its pH to 6.0. We obtained 4.0–6.0 mL of eluted solution and quantified the peptides by BCA assay or HPLC. We used the same analytical conditions for HPLC as previously described. […] We fed male Sprague-Dawley rats (seven weeks old) a nonfluorescent rodent diet (D10001) for a week before intranasal administration to avoid the intrinsic fluorescence of tissues. […] We performed the surgical procedure described by Hirai et al. to close the nasal cavity. Briefly, we incised the neck and cannulated the trachea and esophagus with polyethylene tubing (Hibiki No. 6) to maintain respiration and keep the solutions in the nasal cavity, respectively. We sealed the nasopalatine ducts with medical super glue (Aron Alpha A Sankyo, Daiichi-Sankyo Co., Ltd., Tokyo, Japan) to prevent the drainage of the solutions from the nasal cavity into the oral cavity. […] At the designated time points after administration (15, 30, and 60 or 120 min), we quickly exsanguinated the rats from the postcaval vein and flushed the administered solution by perfusion of PBS (pH 7.4). We decapitated the rats, carefully isolated the whole brain and right and left trigeminal nerves, and washed them with ice-cold PBS (pH 7.4). We placed the brain samples onto a brain matrix (MK-RC-01, Muromachi Kikai Co., Ltd., Tokyo, Japan) and sliced with blades (TCB-100) into twelve 2 mm-thick fractions. We placed the sliced brain and trigeminal nerve samples on a silicon board and mounted them on the stage of an in vivo imaging system (IVIS Lumina XR, Caliper Life sciences, Inc., Waltham, MA, USA). […] We quantified the fluorescence intensity of the region of interest of the images based on their contrast. To calculate the fluorescence intensity derived from Cy7 in the tissues, we subtracted the intrinsic fluorescence of an untreated area from the total intensity.

[2] = in vivo; cited from earlier work
Source text: During the permeation through the nasal mucosa, drugs come across microvascular vessels in the lamina propria directed toward the systemic circulation before reaching the brain or cerebrospinal fluid (CSF).

| Substance | distribution in the trigeminal nerves [1] | distribution ratio (olfactory bulb/trigeminal nerves) [1] | delivery to the brain by intranasal coadministration with L-penetratin [2] |
| --- | --- | --- | --- |
| Cy7-Exendin-4: Exendin-4 labeled with the Cy7 fluorescent dye via Cy7 Mono NHS Ester | high even without L-penetratin | dominantly increased |  |
| Cy7-insulin: insulin labeled with the Cy7 fluorescent dye via Cy7 Mono NHS Ester | high even without L-penetratin | dominantly increased |  |
| leptin |  |  | significantly increased |

Reference: article PMC8618983, “Investigation of the Transport Pathways Associated with Enhanced Brain Delivery of Peptide Drugs by Intranasal Coadministration with Penetratin” (Pharmaceutics, 2021)
